Reference: paper PMC13480463 (Science translational medicine, 2021)

Target: T1, Fzd3 (receptor of the AP binding assays) (UniProt Q61086 23-666)
T1 sequence (looked up): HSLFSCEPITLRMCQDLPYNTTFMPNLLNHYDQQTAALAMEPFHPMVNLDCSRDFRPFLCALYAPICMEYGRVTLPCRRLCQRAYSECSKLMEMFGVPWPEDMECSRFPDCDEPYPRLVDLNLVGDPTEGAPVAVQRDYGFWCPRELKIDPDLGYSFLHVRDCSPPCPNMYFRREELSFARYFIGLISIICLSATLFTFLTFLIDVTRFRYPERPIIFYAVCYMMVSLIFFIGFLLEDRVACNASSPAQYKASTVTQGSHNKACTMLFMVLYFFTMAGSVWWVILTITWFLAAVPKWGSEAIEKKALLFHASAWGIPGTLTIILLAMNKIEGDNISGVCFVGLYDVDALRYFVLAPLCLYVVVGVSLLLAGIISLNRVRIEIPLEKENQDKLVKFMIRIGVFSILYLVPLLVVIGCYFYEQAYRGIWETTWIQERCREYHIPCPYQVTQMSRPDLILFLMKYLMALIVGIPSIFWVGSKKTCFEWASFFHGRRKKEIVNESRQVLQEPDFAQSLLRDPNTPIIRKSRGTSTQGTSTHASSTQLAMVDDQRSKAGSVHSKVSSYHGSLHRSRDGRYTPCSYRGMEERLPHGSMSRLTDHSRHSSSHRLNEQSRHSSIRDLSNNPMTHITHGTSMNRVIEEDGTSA
Experiment: alkaline phosphatase

B1: AP-tagged TSK protein (TSK-AP) (ligand, mouse, UniProt Q8CBR6 18-354, looked up)
chain: TRPCFPGCQCEEETFGLFDSFSLIRVDCSSLGPHIVPVPIPLDTAHLDLSSNRLETVNESVLAGPGYTTLAGLDLSYNLLTSIMPSAFSRLRYLESLDLSHNGLAALPAEIFTSSPLSDINLSHNRLREVSISAFTTHSQGRALHVDLSHNLIHRLLPHPARASLPAPTIQSLNLSWNRFRAVPDLRDLPLRYLSLDGNPLATINPDAFMGLAGLTHLSLASLQGILHLPPHGFRELPGLQVLDLSGNPKLKWAGAEVFSGLGLLQELDLSGSSLVPLPEMLLHHLPALQSVSVGQDVQCRRLVREGAYHRQPGSSPKVVLHCGDTQESAARGPDIL
B1 showed a Kd of 270 pM.
